Molecular target: CD8 on peripheral blood T cells (UniProt P01732)
Test: cell-based or functional assay

## gp180, mAb B9 affinity-purified material from T84 cells (from UniProt P06731 35-685)
  killing in a CTL assay testing alloreactive CTL: < 15%

— patent publication US20050053613A1
